Laboratory results published in patent publication US20110008302A1, “Compositions and methods for immortalizing cells and screening for anti-cancer agents” (priority 2007, published 2011).

Tested on: MEFs
Assay: Stimulation of serum-starved MEFs with growth factors or serum (Ezh2, Ndy1, miR-101 levels)
Format: cell-based, mouse
Conditions: serum-starved MEFs, 24 hours after stimulation
Protocol: MEFs were transfected with control siRNA and stimulated with serum (10%) for 1, 4, 12 and 18 hours. (upper) Nuclear extracts were probed with antibody specific for Ezh2 and for CREB, levels of which served as loading control. (lower) Ndy1 and Ezh2 mRNA levels were measured with real time RT-PCR; GAPDH mRNA levels were used as internal control. Data are expressed as mean±SD.
Serum starved MEFs were stimulated with each of FGF-2 (20 ng/ml), IGF-1 (20 ng/ml), PDGF (20 ng/ml), serum (10%), VEGF (20 ng/ml), EGF (20 ng/ml) or TNFα (50 ng/ml). Nuclear extracts were probed with antibody specific for Ezh2 and for CREB, levels of which served as loading control.
Data are expressed as mean±SD.
MEFs transfected with control siRNA were stimulated with FGF-2 for 1, 4, 12 or 18 hours. (upper) Nuclear extracts were probed with antibody specific for Ezh2. CREB levels served as loading control. (middle) Ndy1 and Ezh2 mRNA were measured with real time RT-PCR; GAPDH mRNA levels were used as internal control. Data are expressed as mean±SD. (lower) miR-101 levels were measured with real time RT-PCR; U6 small nuclear RNA levels were used as internal control. Data are expressed as mean±SD. […]

B1: EGF: growth factor, R&D systems (protein, UniProt P01133 23-1207, looked up)
Pro-epidermal growth factor: PQHWSCPEGTLAGNGNSTCVGPAPFLIFSHGNSIFRIDTEGTNYEQLVVDAGVSVIMDFHYNEKRIYWVDLERQLLQRVFLNGSRQERVCNIEKNVSGMAINWINEEVIWSNQQEGIITVTDMKGNNSHILLSALKYPANVAVDPVERFIFWSSEVAGSLYRADLDGVGVKALLETSEKITAVSLDVLDKRLFWIQYNREGSNSLICSCDYDGGSVHISKHPTQHNLFAMSLFGDRIFYSTWKMKTIWIANKHTGKDMVRINLHSSFVPLGELKVVHPLAQPKAEDDTWEPEQKLCKLRKGNCSSTVCGQDLQSHLCMCAEGYALSRDRKYCEDVNECAFWNHGCTLGCKNTPGSYYCTCPVGFVLLPDGKRCHQLVSCPRNVSECSHDCVLTSEGPLCFCPEGSVLERDGKTCSGCSSPDNGGCSQLCVPLSPVSWECDCFPGYDLQLDEKSCAASGPQPFLLFANSQDIRHMHFDGTDYGTLLSQQMGMVYALDHDPVENKIYFAHTALKWIERANMDGSQRERLIEEGVDVPEGLAVDWIGRRFYWTDRGKSLIGRSDLNGKRSKIITKENISQPRGIAVHPMAKRLFWTDTGINPRIESSSLQGLGRLVIASSDLIWPSGITIDFLTDKLYWCDAKQSVIEMANLDGSKRRRLTQNDVGHPFAVAVFEDYVWFSDWAMPSVMRVNKRTGKDRVRLQGSMLKPSSLVVVHPLAKPGADPCLYQNGGCEHICKKRLGTAWCSCREGFMKASDGKTCLALDGHQLLAGGEVDLKNQVTPLDILSKTRVSEDNITESQHMLVAEIMVSDQDDCAPVGCSMYARCISEGEDATCQCLKGFAGDGKLCSDIDECEMGVPVCPPASSKCINTEGGYVCRCSEGYQGDGIHCLDIDECQLGEHSCGENASCTNTEGGYTCMCAGRLSEPGLICPDSTPPPHLREDDHHYSVRNSDSECPLSHDGYCLHDGVCMYIEALDKYACNCVVGYIGERCQYRDLKWWELRHAGHGQQQKVIVVAVCVVVLVMLLLLSLWGAHYYRTQKLLSKNPKNPYEESSRDVRSRRPADTEDGMSSCPQPWFVVIKEHQDLKNGGQPVAGEDGQAADGSMQPTSWRQEPQLCGMGTEQGCWIPVSSDKGSCPQVMERSFHMPSYGTQTLEGGVEKPHSLLSANPLWQQRALDPPHQMELTQ
modifications: Pro-epidermal growth factor
notes: growth factor, R&D systems
For B1, the “level at which Ezh2 expression is induced” value was “at both the RNA and protein levels” and the Ezh2 expression (20 ng/ml (serum 10%)) was “significantly upregulated”.
